Key:
[1] = target: T1, Recombinant CD4 (cluster of differentiation 4) (Homo sapiens (species ), UniProt P01730); assay: SPR; BIACORE T-200; CD4 amine-coupled on CM5 (9695.5 RU); nanobodies 0.4 μM flowed over, 25 °C, HBS-EP pH 7.4, contact 180 s, 30 μL/min; binding level relative to CD4 N = 1; N = 3; conditions: both partners purified
T1 construct: CD4, recombinant, bought from R&D Systems; No catalogue number is printed; a bought soluble CD4 is probably the extracellular domain, possibly tagged (surmise); source: bought: R&D Systems

[2] = target: T2, Recombinant GFP (green fluorescent protein) (UniProt P42212 = GFP); assay: SPR; BIACORE T-200; GFP amine-coupled on CM5 (1189.8 RU); nanobodies 0.4 μM flowed over, 25 °C, HBS-EP pH 7.4, contact 180 s, 30 μL/min; binding level relative to GFP N = 1; N = 3; conditions: both partners purified
T2 construct: green fluorescent protein, recombinant, bought from ProSpec; No catalogue number is printed; source: bought: ProSpec

B1: chimeric nanobody in which all CDRs of GFP-nanobody had been replaced with those of CD4-nanobody (VHH)
VHH: QVQLVESGGALVQPGGSLRLSCAASGRTFNVMRWYRQAPGKEREWVAAVRWSSTGIYYTQYADSVKGRFTISRDDARNTVYLQMNSLKPEDTAVYYCAADTYNSNPARWDGYDFRGQGTQVTVSS
notes: scaffold before CDR1, as in the VHH of m1; CDR1, as in the VHH of m2; scaffold between CDR1 and CDR2, as in the VHH of m1; CDR2, as in the VHH of m2; scaffold between CDR2 and CDR3, as in the VHH of m1; CDR3, as in the VHH of m2; scaffold after CDR3, as in the VHH of m1; not shown: long peptide tag containing two FLAG-tags, C-terminal, kept
For B1, which “relative binding response (CD4N to CD4 = 1)” value [1] is on record?
Its value is 0.096.

B2: chimeric nanobody with CDR2 of GFP-nanobody replaced with that of CD4-nanobody (VHH)
VHH: QVQLVESGGALVQPGGSLRLSCAASGFPVNRYSMRWYRQAPGKEREWVAAVRWSSTGIYYTQYADSVKGRFTISRDDARNTVYLQMNSLKPEDTAVYYCNVNVGFEYWGQGTQVTVSS
notes: everything before CDR2 (scaffold, CDR1), as in the VHH of m1; CDR2, as in the VHH of m2; everything after CDR2 (scaffold, CDR3), as in the VHH of m1; also called cCD4 CDR2; not shown: long peptide tag containing two FLAG-tags, C-terminal, kept
With B2 as the binder, how does the “relative binding response (CD4N to CD4 = 1)” value [1] read?
Its value is 0.091.

B3: chimeric nanobody with CDR3 of GFP-nanobody replaced with that of CD4-nanobody (VHH)
VHH: QVQLVESGGALVQPGGSLRLSCAASGFPVNRYSMRWYRQAPGKEREWVAGMSSAGDRSSYEDSVKGRFTISRDDARNTVYLQMNSLKPEDTAVYYCAADTYNSNPARWDGYDFRGQGTQVTVSS
notes: everything before CDR3 (scaffold, CDR1, CDR2), as in the VHH of m1; CDR3, as in the VHH of m2; scaffold after CDR3, as in the VHH of m1; also called cCD4 CDR3; not shown: long peptide tag containing two FLAG-tags, C-terminal, kept
What does the source list for B3?
relative binding response (CD4N to CD4 = 1) [1]: 0.1; binding result [2]: no binding (tested: 0.4 μM)

Reference: article PMC6629726, “Domain swapping of complementarity-determining region in nanobodies produced by Pichia pastoris” (AMB Express, 2019)
